Data: FireProtDB
Where “and” joins values, the source holds several entries; their conditions need not be identical. Equal entries are not always repeated.

[1] = Drosophila melanogaster, pH 7.5, 15 °C, GdnHCl, CD, Tris-HCl, NaCl 50 mM, structure 1SAN
[2] = Salmo salar, pH 7.1, Thermal, CD, HEPES 10 mM, NaCl MgCl2 30 mM 3mM
[3] = Mus musculus, pH 6.88, 5 °C, Pressure, NMR, Tris 20 mM, reversible: yes, structure 1MBG
[4] = Homo sapiens, pH 7.4, 25 °C, GdnHCl, CD, PBS, structure 1TIT
[5] = Bos taurus, pH 8, Thermal, DSC, HEPES 50mM, NaCl 150mM, structure 1IHG

Homeotic protein antennapedia R306E|L310R|H317R|F318R, P02833 R306E L310R H317R F318R, sequence (P02833 whole entry R306E/L310R/H317R/F318R): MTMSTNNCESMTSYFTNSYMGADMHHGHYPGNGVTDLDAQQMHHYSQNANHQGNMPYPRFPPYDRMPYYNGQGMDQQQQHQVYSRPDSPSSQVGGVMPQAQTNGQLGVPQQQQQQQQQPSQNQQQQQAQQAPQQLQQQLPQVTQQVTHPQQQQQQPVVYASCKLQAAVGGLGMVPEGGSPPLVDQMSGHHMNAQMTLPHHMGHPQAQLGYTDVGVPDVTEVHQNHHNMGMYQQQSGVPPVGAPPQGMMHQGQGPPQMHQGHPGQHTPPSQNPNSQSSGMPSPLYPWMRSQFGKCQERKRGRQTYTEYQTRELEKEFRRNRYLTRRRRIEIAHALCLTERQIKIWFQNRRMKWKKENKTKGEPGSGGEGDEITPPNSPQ
Peptidyl-prolyl cis-trans isomerase D K308A, P26882, sequence (P26882 whole entry K308A): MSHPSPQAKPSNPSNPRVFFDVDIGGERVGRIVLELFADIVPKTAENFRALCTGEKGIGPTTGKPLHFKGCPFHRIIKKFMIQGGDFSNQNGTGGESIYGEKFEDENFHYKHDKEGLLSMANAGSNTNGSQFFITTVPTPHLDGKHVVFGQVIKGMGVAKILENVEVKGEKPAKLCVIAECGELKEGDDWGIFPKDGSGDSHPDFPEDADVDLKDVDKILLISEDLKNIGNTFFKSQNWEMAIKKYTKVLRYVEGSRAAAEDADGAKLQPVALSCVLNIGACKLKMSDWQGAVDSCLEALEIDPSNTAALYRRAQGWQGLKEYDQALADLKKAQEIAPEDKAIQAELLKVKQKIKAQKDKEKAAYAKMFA
Tropomyosin alpha-1 chain G24A, Q91472, sequence (Q91472 entry or part of it G24A | G24A): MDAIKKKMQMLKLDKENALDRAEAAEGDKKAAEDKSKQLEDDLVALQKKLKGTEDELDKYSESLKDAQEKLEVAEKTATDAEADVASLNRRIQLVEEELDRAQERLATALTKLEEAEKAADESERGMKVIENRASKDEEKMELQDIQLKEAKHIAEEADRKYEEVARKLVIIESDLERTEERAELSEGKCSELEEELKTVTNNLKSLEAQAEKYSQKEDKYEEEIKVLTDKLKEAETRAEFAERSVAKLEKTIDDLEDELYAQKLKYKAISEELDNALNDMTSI
Transcriptional activator Myb V103L, P06876, sequence (P06876 whole entry V103L): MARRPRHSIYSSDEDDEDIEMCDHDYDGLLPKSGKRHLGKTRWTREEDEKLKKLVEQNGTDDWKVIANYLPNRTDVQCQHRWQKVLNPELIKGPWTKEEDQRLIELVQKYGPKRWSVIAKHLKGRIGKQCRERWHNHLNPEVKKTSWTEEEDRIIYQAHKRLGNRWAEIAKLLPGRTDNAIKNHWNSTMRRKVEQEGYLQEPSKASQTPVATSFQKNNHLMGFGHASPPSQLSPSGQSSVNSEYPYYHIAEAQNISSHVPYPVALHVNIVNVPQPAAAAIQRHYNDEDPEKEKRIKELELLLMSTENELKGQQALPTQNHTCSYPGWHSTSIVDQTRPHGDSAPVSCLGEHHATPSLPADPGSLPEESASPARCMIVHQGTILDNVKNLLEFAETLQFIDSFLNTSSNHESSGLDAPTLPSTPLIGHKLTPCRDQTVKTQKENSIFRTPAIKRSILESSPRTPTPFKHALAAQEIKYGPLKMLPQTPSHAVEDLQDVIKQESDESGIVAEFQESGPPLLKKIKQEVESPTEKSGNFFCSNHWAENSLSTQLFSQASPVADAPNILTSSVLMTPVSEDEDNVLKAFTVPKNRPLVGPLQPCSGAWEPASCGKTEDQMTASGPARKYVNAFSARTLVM
Tropomyosin alpha-1 chain wild type, Q91472, sequence (Q91472 entry or part of it): as the sequence (Q91472 entry or part of it G24A | G24A) above, with A24G counted along it
Cytochrome c wild type, P62894, sequence (P62894 whole entry): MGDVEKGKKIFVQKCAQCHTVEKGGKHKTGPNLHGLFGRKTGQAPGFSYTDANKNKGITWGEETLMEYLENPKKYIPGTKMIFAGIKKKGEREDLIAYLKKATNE

**Q.** Which denaturant m value [1] does the source give for “Homeotic protein antennapedia R306E|L310R|H317R|F318R, P02833 R306E L310R H317R F318R” here?
**A.** 1.6 kcal/mol/M and 0.79 kcal/mol/M

**Q.** And the “denaturant midpoint (higher = more stable)” value [1]?
**A.** 2.14 M and 1.32 M

**Q.** Which Tm [2] does the source give for “Tropomyosin alpha-1 chain wild type, Q91472” here?
**A.** 37 °C

**Q.** What does the source list for Tropomyosin alpha-1 chain G24A, Q91472?
**A.** Tm [2]: 36.9 °C; change of melting temperature, mutant - wild type (higher = more stable) [2]: -0.1 °C

**Q.** For Cytochrome c wild type, P62894, which unfolding free energy (Bos taurus, pH 6.5, 25 °C, GdnHCl, CD, HCl 0.1 M, reversible: yes) is on record?
**A.** 15.4 kcal/mol

**Q.** For “Transcriptional activator Myb V103L, P06876”, which “ddG of mutation (higher = less stable)” value [3] is on record?
**A.** -0.48 kcal/mol

**Q.** And the unfolding free energy [3]?
**A.** 1.75 kcal/mol

**Q.** Which “ddG of mutation (higher = less stable)” value [4] does the source give for Titin L12717A, Q8WZ42 here?
**A.** 2.67 kcal/mol

**Q.** For “Peptidyl-prolyl cis-trans isomerase D K308A, P26882”, which Tm [5] is on record?
**A.** 45 °C

**Q.** What about the “change of melting temperature, mutant - wild type (higher = more stable)” value [5] of the same substance?
**A.** -0.07 °C

**Q.** What about the “unfolding enthalpy (calorimetric)” value [5] of the same substance?
**A.** 155 kcal/mol

**Q.** Which “ddG of mutation (higher = less stable)” value [4] does the source give for Titin I12699A, Q8WZ42 here?
**A.** 2.89 kcal/mol
